Assay results from patent US20180215829A1 (published 2018).
Substitutions are numbered along the chain they refer to.

B1: VH clone 2.1 (VHH)
VHH: QVQLVQSGAEVKKPGASVKVSCKASGYPFTSYDINWVRQATGQSLEWMGWMNPNSGDTVYAQKFQGRVTMTRNTSISTAYMELSSLRSEDTAVYFCARGRRDDWKNNYWGQGTLVTVSS
B2: VH clone 1.2 (VHH)
VHH: EVQLVESGGGLVQPGRSLRLSCAASGFTFDDYAMHWVRQAPGKGLEWVSGISWNSGRMDYADSVKGRFTISRDNAKNSLYLQMNSLRAEDTALYYCAKEKGLGYCRGGSCSYFDYRGQGTLVTVSS
B3: VH clone 1.1 (VHH)
VHH: B2 VHH with E1Q, N77K, L93M, Y104F

Biological target: recombinant human IL-17RA Fc fusion protein (R&D Systems 177-IR-100) (UniProt Q96F46 33-320)
Assay: BIAcore

Chain of recombinant human IL-17RA Fc fusion protein (R&D Systems 177-IR-100) (Q96F46 33-320): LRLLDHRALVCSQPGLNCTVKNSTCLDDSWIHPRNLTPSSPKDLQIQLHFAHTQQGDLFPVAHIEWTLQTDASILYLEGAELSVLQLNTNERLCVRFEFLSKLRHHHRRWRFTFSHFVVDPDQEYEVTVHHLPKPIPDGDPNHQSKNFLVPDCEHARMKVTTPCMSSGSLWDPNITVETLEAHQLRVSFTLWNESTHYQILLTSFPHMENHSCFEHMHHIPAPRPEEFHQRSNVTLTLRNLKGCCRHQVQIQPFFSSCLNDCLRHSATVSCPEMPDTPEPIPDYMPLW

Binder	koff [s⁻¹]
B1	0.00384
B2	5.79e-05
B3	5.83e-05
